What was measured:
[1] = target: serum IgM of WM patient 11 (human (endogenous in serum)); test: SEC + ELISA; serum diluted in PBS fractionated by HP-SEC on Superose 6 increase 10/300 GL in PBS, 0.5 mL/min; IgM, IgM-J-chain and IgM-CD5L measured by ELISA in each 250 µL fraction
[2] = target: IgM of patients with IgM MGUS and WM (n = 29), IgM-CD5L ELISA; test: ELISA; IgM-CD5L ELISA: anti-human IgM (MH-15-1) coated captures IgM from serum diluted in HPE buffer, room temperature; IgM-bound CD5L detected with a-CD5L-HRP (clone 5B5, 0.5 µg/mL); compared to total IgM
[3] = target: serum IgM of healthy donors (mu heavy and light chains) (human (endogenous in serum)); test: as above

B1: CD5-Like (CD5L) (natural protein)
chain: SPSGVRLVGGLHRCEGRVEVEQKGQWGTVCDDGWDIKDVAVLCRELGCGAASGTPSGILYEPPAEKEQKVLIQSVSCTGTEDTLAQCEQEEVYDCSHDEDAGASCENPESSFSPVPEGVRLADGPGHCKGRVEVKHQNQWYTVCQTGWSLRAAKVVCRQLGCGRAVLTQKRCNKHAYGRKPIWLSQMSCSGREATLQDCPSGPWGKNTCNHDEDTWVECEDPFDLRLVGGDNLCSGRLEVLHKGVWGSVCDDNWGEKEDQVVCKQLGCGKSLSPSFRDRKCYGPGVGRIWLDNVRCSGEEQSLEQCQHRFWGFHDCTHQEDVAVICSG
[1]
  percent of IgM molecules that contain CD5L: 10%
[2]
  ratio between IgM-CD5L complexes and total IgM: 0.1
[3]
  ratio between IgM-CD5L complexes and total IgM: 1
